Measured values taken from US7569660.

Experiments:
Rnq1 (S. cerevisiae) = Rnq1 (S. cerevisiae) (UniProt P25367)
yeast Hsp104 protein = yeast Hsp104 protein (UniProt P31539)
Sequence of yeast Hsp104 protein (P31539 whole entry): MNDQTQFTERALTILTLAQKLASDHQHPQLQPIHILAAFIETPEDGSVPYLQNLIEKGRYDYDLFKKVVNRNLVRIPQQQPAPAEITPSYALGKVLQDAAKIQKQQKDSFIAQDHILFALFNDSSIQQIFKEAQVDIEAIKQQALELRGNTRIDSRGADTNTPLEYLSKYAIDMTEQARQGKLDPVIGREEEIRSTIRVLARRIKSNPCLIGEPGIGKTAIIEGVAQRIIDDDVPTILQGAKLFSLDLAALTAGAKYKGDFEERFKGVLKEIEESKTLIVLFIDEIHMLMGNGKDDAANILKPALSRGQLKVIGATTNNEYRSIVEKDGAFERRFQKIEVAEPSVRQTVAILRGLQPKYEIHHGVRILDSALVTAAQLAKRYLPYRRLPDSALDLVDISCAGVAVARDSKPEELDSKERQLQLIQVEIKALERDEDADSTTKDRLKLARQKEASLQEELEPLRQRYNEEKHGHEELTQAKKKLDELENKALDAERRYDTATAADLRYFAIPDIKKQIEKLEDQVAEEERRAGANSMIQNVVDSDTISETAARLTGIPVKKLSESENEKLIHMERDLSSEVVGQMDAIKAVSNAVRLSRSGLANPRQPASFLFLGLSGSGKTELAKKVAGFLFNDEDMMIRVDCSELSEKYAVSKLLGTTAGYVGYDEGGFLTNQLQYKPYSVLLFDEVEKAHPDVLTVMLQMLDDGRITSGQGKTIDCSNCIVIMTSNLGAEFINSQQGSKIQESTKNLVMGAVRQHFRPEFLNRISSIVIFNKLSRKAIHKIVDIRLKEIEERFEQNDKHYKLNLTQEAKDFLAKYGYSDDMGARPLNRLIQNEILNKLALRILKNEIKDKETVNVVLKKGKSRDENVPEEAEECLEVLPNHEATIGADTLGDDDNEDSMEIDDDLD

Row | Substance | lag time of Thioflavin T fluorescence increase, seeded with 2% preformed fibers (Rnq1 (S. cerevisiae)) [h] | lag time of Thioflavin T fluorescence increase, unseeded (Rnq1 (S. cerevisiae)) [h] | ATPase activity of Hsp104 (released phosphate, Malachite Green) (yeast Hsp104 protein)
1 | Rnq1 (from UniProt P25367 1-405) | 4.3 | 6.4 | –
2 | aldolase | – | – | did not
